# The Immune Epitope Database (IEDB)
# What was measured:
# HLA-A*24:02 = assay: IEDB peptide-MHC binding, purified MHC/competitive/fluorescence; ≥ and ≤ were set here for values at or beyond the usual limits of such assays
# HLA-B*08:01 = assay: as above
# HLA-A*02:03 [1] = assay: IEDB peptide-MHC binding, purified MHC/competitive/fluorescence; filed as Kd, often an IC50 or EC50 that approximates it; ≥ and ≤ were set here for values at or beyond the usual limits of such assays
# HLA-A*02:06 = assay: as above; conditions: source organism: Human immunodeficiency virus 1
# HLA-A*68:02 [2] = assay: as above
# HLA-A*69:01 = assay: as above
# HLA-A*02:01 [3] = assay: as above
# HLA-A*30:01 = assay: as above; conditions: source organism: Human immunodeficiency virus 1
# HLA-A*31:01 = assay: as above; conditions: source organism: Human immunodeficiency virus 1
# HLA-B*39:01 = assay: as above
# HLA-A*02:16 [4] = assay: as above; conditions: source organism: Burkholderia pseudomallei K96243
# HLA-A*02:01 [5] = assay: IEDB peptide-MHC binding, purified MHC/competitive/fluorescence; ≥ and ≤ were set here for values at or beyond the usual limits of such assays
# HLA-B*07:02 = assay: as above
# HLA-B*15:01 [6] = assay: as above
# HLA-A*01:01 [7] = assay: IEDB peptide-MHC binding, purified MHC/competitive/fluorescence; filed as Kd, often an IC50 or EC50 that approximates it; ≥ and ≤ were set here for values at or beyond the usual limits of such assays
# HLA-A*02:12 [8] = assay: as above
# HLA-A*02:19 [9] = assay: as above
# HLA-A*03:01 [10] = assay: as above
# HLA-A*26:01 = assay: as above
# HLA-A*29:02 [11] = assay: as above
# HLA-B*18:01 = assay: as above
# HLA-B*27:03 = assay: as above
# HLA-B*51:01 = assay: as above
# HLA-B*15:01 [12] = assay: as above
# HLA-B*15:17 = assay: as above
# HLA-B*57:01 = assay: as above
# HLA-A*24:03 = assay: as above
# HLA-B*46:01 = assay: as above
# HLA-A*01:01 [13] = assay: IEDB peptide-MHC binding, purified MHC/competitive/fluorescence; ≥ and ≤ were set here for values at or beyond the usual limits of such assays
# HLA-A*01:01 [14] = assay: IEDB peptide-MHC binding, purified MHC/direct/fluorescence; filed as Kd, often an IC50 or EC50 that approximates it; ≥ and ≤ were set here for values at or beyond the usual limits of such assays; conditions: source organism: Ebola virus - Eckron (Zaire, 1976)
# HLA-A*02:11 = assay: as above
# HLA-A*02:12 [15] = assay: as above
# HLA-A*02:19 [16] = assay: as above
# HLA-A*03:01 [17] = assay: as above
# HLA-A*29:02 [18] = assay: as above; conditions: source organism: Zaire ebolavirus
# HLA-A*68:02 [19] = assay: as above
# HLA-A*02:03 [20] = assay: as above; conditions: source organism: Orthohantavirus andesense
# HLA-A*02:16 [21] = assay: as above; conditions: source organism: Orthohantavirus andesense
# HLA-A*03:01 [22] = assay: IEDB peptide-MHC binding, purified MHC/competitive/fluorescence; ≥ and ≤ were set here for values at or beyond the usual limits of such assays; conditions: source organism: Vaccinia virus
# HLA-A*11:01 = assay: as above; conditions: source organism: Vaccinia virus
# [23] = source organism: Human immunodeficiency virus 1
# [24] = source organism: Zaire ebolavirus
# [25] = source organism: Vaccinia virus
# [26] = source organism: Cryptosporidium parvum Iowa II
# [27] = source organism: Entamoeba dispar SAW760
# [28] = source organism: Measles morbillivirus
# [29] = source organism: Vaccinia virus Copenhagen
# [30] = source organism: Orthohantavirus andesense
sequence,measurement,setting,value
DFHERPVIL,IC50,HLA-A*24:02; source organism: Variola virus,31.3 nM
same,IC50,HLA-B*08:01; source organism: Variola virus,≥ 88.5 µM
EELRSLFNTI,Kd,HLA-A*02:03 [1]; [23],≥ 20 µM
same,Kd,HLA-A*02:06,1140 nM
same,Kd,HLA-A*68:02 [2]; [23],≥ 20 µM
EELRSLFNTV,Kd,HLA-A*02:06,302 nM
same,Kd,HLA-A*68:02 [2]; [23],0.325 µM
same,Kd,HLA-A*69:01; [23],0.301 µM
EKLKSLFNTI,Kd,HLA-A*02:01 [3]; [23],≥ 20 µM
same,Kd,HLA-A*02:03 [1]; [23],0.0368 µM
same,Kd,HLA-A*02:06,1.83 nM
same,Kd,HLA-A*30:01,20.7 nM
same,Kd,HLA-A*31:01,≥ 20 µM
same,Kd,HLA-A*68:02 [2]; [23],≥ 20 µM
same,Kd,HLA-B*39:01; [23],0.641 µM
ELAKPWPGA,Kd,HLA-A*02:01 [3]; source organism: Burkholderia pseudomallei K96243,1.21 µM
same,Kd,HLA-A*02:16 [4],≥ 20 µM
FSILNRKAI,IC50,HLA-A*02:01 [5]; [24],≥ 235 µM
same,IC50,HLA-A*24:02; [24],5560 nM
same,IC50,HLA-B*07:02; [24],46.5 µM
same,IC50,HLA-B*08:01; [24],21.6 µM
same,IC50,HLA-B*15:01 [6]; [24],35.8 µM
HSDTAKAFA,Kd,HLA-A*01:01 [7]; source organism: Escherichia coli,≥ 20 µM
INPIVKTSL,IC50,HLA-B*07:02; [25],21.1 µM
same,IC50,HLA-B*08:01; [25],≥ 88.4 µM
KIFKVTGEF,Kd,HLA-A*02:01 [3]; [26],≥ 20 µM
same,Kd,HLA-A*02:03 [1]; [26],≥ 20 µM
same,Kd,HLA-A*02:12 [8]; [26],≥ 20 µM
same,Kd,HLA-A*02:19 [9]; [26],≥ 20 µM
same,Kd,HLA-A*03:01 [10]; [26],≥ 20 µM
same,Kd,HLA-A*26:01; [26],≥ 20 µM
same,Kd,HLA-A*29:02 [11]; [26],734 nM
same,Kd,HLA-A*68:02 [2]; [26],≥ 20 µM
same,Kd,HLA-A*69:01; [26],≥ 20 µM
same,Kd,HLA-B*18:01; [26],≥ 20 µM
same,Kd,HLA-B*27:03; [26],≥ 20 µM
same,Kd,HLA-B*39:01; [26],≥ 20 µM
same,Kd,HLA-B*51:01; [26],≥ 20 µM
KSLYNTVATLY,Kd,HLA-A*01:01 [7]; [23],≥ 20 µM
same,Kd,HLA-A*02:03 [1]; [23],≥ 20 µM
same,Kd,HLA-A*30:01,≥ 20000 nM
same,Kd,HLA-B*15:01 [12]; [23],≥ 20 µM
same,Kd,HLA-B*15:17; [23],0.0064 µM
same,Kd,HLA-B*18:01; [23],≥ 20 µM
same,Kd,HLA-B*57:01; [23],0.959 µM
LVGNTLTTC,Kd,HLA-A*02:01 [3]; [27],≥ 20 µM
same,Kd,HLA-A*02:03 [1]; [27],≥ 20 µM
same,Kd,HLA-A*02:12 [8]; [27],4.55 µM
same,Kd,HLA-A*02:19 [9]; [27],≥ 20 µM
same,Kd,HLA-A*03:01 [10]; [27],≥ 20 µM
same,Kd,HLA-A*24:03; [27],≥ 20000 nM
same,Kd,HLA-A*26:01; [27],≥ 20 µM
same,Kd,HLA-A*29:02 [11]; [27],≥ 20000 nM
same,Kd,HLA-B*15:01 [12]; [27],≥ 20 µM
same,Kd,HLA-B*18:01; [27],≥ 20 µM
same,Kd,HLA-B*27:03; [27],≥ 20 µM
same,Kd,HLA-B*39:01; [27],≥ 20 µM
same,Kd,HLA-B*46:01; [27],≥ 20 µM
same,Kd,HLA-B*51:01; [27],≥ 20 µM
same,Kd,HLA-B*57:01; [27],≥ 20 µM
NSTHNTPVY,IC50,HLA-A*01:01 [13]; [24],29.1 µM
same,IC50,HLA-B*15:01 [6]; [24],≥ 119 µM
same,Kd,HLA-A*01:01 [14],≥ 20 µM
same,Kd,HLA-A*02:11; [24],≥ 20 µM
same,Kd,HLA-A*02:12 [15]; [24],≥ 20 µM
same,Kd,HLA-A*02:19 [16]; [24],≥ 20 µM
same,Kd,HLA-A*03:01 [17]; [24],≥ 20 µM
same,Kd,HLA-A*29:02 [18],≥ 20 µM
same,Kd,HLA-A*68:02 [19]; [24],≥ 20 µM
same,Kd,HLA-A*02:01 [3]; [24],≥ 20 µM
same,Kd,HLA-A*26:01; [24],≥ 20 µM
same,Kd,HLA-A*69:01; [24],≥ 20 µM
same,Kd,HLA-B*15:17; [24],≥ 20 µM
same,Kd,HLA-B*18:01; [24],≥ 20 µM
same,Kd,HLA-B*27:03; [24],≥ 20 µM
same,Kd,HLA-B*39:01; [24],≥ 20 µM
same,Kd,HLA-B*46:01; [24],≥ 20 µM
same,Kd,HLA-B*51:01; [24],≥ 20 µM
same,Kd,HLA-B*57:01; [24],≥ 20 µM
SFSYFYPFR,Kd,HLA-A*01:01 [7]; [28],≥ 20 µM
same,Kd,HLA-A*29:02 [11]; [28],458 nM
TFALKKLII,IC50,HLA-A*02:01 [5]; [29],≥ 131 µM
same,IC50,HLA-A*24:02; [29],323 nM
same,IC50,HLA-B*08:01; [29],≥ 132 µM
VRQRVIPVY,IC50,HLA-A*02:01 [5]; [24],≥ 524 µM
same,IC50,HLA-A*24:02; [24],23400 nM
same,IC50,HLA-B*08:01; [24],≥ 210 µM
same,IC50,HLA-B*15:01 [6]; [24],3.26 µM
VWKQLFPEL,Kd,HLA-A*02:03 [20],≥ 20 µM
same,Kd,HLA-A*02:11; [30],≥ 20 µM
same,Kd,HLA-A*02:12 [15]; [30],≥ 20 µM
same,Kd,HLA-A*02:16 [21],≥ 20 µM
same,Kd,HLA-A*02:19 [16]; [30],≥ 20 µM
same,Kd,HLA-A*03:01 [17]; [30],≥ 20 µM
same,Kd,HLA-A*68:02 [19]; [30],≥ 20 µM
same,Kd,HLA-A*02:01 [3]; [30],≥ 20 µM
same,Kd,HLA-A*24:03; [30],10.5 nM
same,Kd,HLA-A*26:01; [30],≥ 20 µM
same,Kd,HLA-A*69:01; [30],≥ 20 µM
same,Kd,HLA-B*15:17; [30],≥ 20 µM
same,Kd,HLA-B*18:01; [30],≥ 20 µM
same,Kd,HLA-B*27:03; [30],≥ 20 µM
same,Kd,HLA-B*39:01; [30],≥ 20 µM
same,Kd,HLA-B*46:01; [30],≥ 20 µM
same,Kd,HLA-B*51:01; [30],≥ 20 µM
same,Kd,HLA-B*57:01; [30],≥ 20 µM
WAMEKSSKY,IC50,HLA-A*01:01 [13]; [25],36.8 µM
same,IC50,HLA-A*02:01 [5]; [25],≥ 122 µM
same,IC50,HLA-A*03:01 [22],≥ 265 µM
same,IC50,HLA-A*11:01,≥ 130 µM
same,IC50,HLA-B*07:02; [25],≥ 624 µM
same,IC50,HLA-B*15:01 [6]; [25],9.18 µM
